Laboratory results taken from IntAct's records for PubMed 18626018.

B1: CREB-regulated transcription coactivator 2 (Mus musculus), Q3U182 (parent)
chain: MATSGANGPGSATASASNPRKFSEKIALQKQRQAEETAAFEEVMMDIGSTRLQAQKLRLAYTRSSHYGGSLPNVNQIGCGLAEFQSPLHSPLDSSRSTRHHGLVERVQRDARRMVSPLRRYPRHIDSSPYSPAYLSPPPESGWRRMMPWGNLPAEKGQLFRLPSALNRTSSDSALHTSVMNPNPQDTYPGPTPPSVLPSRRGGGFLDGEMDAKVPAIEENVVDDKHLLKPWDAKKLSSSSSRPRSCEVPGINIFPSPDQPANVPVLPPAMNTGGSLPDLTNLHFPPPLPTPLDPEETVYPSLSGGNSTTNLTHTMTHLGISGGLGLGPSYDVPGLHSPLSHPSLQSSLSNPNLQASLSSPQPQLQGSHSHPSLPASSLAHHALPTTSLGHPSLSAPALSSSSSSSSTSSPVLSAPPYPASTPGASPRHRRVPLSPLSLPAGPADARRSQQQLPKQFSPTMSPTLSSITQGVPLDTSKLPTDQRLPPYPYSPPSLVIPTHPPTPKSLQQLPSQACLVQPSGGQPPGRQPHYGALYPPGSSGHGQQPYHRPINDFSLGNLEQFNMESPSTSLVLDPPAFSEGPGFLGSEGSMSGPQDPHVLNHQNLTHCSRHGSGPNIILTGDSSPGFSKEIAAALAGVPGFEVSASGLELGLGLEDELRMEPLGLEGLTMLSDPCALLPDPAVEDSFRSDRLQ

Key:
[1] = variants of: B1; conditions: with 1433b_human YWHAB
[2] = variants of: B1; conditions: with mark2_human MARK2, Q7KZI7
mark2_human MARK2, Q7KZI7, sequence (Q7KZI7 whole entry): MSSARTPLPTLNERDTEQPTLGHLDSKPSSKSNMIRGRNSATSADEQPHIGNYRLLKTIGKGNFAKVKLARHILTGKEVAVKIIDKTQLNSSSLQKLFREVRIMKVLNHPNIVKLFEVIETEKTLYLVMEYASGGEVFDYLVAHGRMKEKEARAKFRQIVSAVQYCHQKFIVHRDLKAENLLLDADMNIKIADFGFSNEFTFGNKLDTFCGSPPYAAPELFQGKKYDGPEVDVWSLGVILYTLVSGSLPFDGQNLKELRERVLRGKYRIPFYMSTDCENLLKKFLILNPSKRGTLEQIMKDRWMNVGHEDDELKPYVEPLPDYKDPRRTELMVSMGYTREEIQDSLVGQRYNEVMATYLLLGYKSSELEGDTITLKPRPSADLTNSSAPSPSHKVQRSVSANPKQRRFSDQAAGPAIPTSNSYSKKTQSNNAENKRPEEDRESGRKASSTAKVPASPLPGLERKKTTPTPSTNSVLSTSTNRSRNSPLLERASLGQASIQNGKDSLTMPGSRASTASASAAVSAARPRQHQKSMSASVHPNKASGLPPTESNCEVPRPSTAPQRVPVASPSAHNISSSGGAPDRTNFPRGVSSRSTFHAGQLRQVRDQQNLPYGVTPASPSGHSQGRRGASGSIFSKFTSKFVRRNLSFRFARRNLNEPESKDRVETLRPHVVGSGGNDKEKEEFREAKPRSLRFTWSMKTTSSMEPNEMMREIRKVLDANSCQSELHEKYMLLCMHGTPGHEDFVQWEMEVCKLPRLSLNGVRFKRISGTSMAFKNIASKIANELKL

[3] = variants of: B1; conditions: with aapk1_human PRKAA1, Q13131
aapk1_human PRKAA1, Q13131, sequence (Q13131 whole entry, looked up): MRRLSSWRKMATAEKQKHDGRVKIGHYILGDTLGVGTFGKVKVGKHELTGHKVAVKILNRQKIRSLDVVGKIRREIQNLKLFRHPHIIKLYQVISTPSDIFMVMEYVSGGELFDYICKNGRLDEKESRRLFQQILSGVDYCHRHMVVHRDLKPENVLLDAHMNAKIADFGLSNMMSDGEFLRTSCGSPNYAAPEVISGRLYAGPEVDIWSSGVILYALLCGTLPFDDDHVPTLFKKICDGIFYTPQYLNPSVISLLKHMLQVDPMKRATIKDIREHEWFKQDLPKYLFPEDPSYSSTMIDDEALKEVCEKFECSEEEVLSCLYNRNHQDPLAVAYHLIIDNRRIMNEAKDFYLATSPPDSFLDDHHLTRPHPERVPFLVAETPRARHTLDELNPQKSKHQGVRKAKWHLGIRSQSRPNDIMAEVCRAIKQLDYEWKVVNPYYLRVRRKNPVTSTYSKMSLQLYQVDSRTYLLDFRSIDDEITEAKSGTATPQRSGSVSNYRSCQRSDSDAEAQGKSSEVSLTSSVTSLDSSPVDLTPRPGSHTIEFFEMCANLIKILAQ

[4] = variants of: B1; conditions: with mark3_human MARK3, P27448
mark3_human MARK3, P27448, sequence (P27448 whole entry, looked up): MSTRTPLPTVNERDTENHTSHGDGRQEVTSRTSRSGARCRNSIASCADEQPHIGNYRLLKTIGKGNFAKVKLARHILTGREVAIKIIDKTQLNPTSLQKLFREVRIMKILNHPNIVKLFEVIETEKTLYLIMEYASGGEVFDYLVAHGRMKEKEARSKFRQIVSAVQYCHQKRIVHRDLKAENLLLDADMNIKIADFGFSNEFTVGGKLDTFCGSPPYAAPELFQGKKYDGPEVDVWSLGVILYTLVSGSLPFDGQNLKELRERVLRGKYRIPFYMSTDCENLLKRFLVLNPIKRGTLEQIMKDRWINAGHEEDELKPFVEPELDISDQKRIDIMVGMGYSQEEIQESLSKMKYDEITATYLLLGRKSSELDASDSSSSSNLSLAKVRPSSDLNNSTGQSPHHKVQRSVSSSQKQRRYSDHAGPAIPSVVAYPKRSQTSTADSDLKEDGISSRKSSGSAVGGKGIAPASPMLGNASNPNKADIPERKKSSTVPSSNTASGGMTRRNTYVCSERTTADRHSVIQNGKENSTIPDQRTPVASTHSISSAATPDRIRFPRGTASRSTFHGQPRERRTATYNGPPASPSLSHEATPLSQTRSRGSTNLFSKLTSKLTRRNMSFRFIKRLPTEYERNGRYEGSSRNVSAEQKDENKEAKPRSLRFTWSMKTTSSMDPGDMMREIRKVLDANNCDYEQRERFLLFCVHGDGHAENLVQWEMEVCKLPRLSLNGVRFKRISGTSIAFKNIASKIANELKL

effect of a mutation on the interaction [1] | effect of a mutation on the interaction [2] | effect of a mutation on the interaction [3] | effect of a mutation on the interaction [4] | Variant
disrupting interaction | disrupting interaction | disrupting interaction | disrupting interaction | S171A
– | disrupting interaction | disrupting interaction | disrupting interaction | S275A
disrupting interaction | – | – | – | S171A;S275A
